pIC50, pKd: −log10 of the molar value.
Experiments:
HLA-A*01:01 [1] = experiment: IEDB peptide-MHC binding, purified MHC/competitive/fluorescence; ≥ and ≤ were set here for values at or beyond the usual limits of such assays
HLA-B*15:01 [2] = experiment: as above
HLA-A*80:01 = experiment: IEDB peptide-MHC binding, purified MHC/direct/fluorescence; filed as Kd, often an IC50 or EC50 that approximates it; ≥ and ≤ were set here for values at or beyond the usual limits of such assays; conditions: source organism: Francisella tularensis subsp. holarctica LVS
HLA-C*08:02 = experiment: as above
HLA-A*01:01 [3] = experiment: as above; conditions: source organism: Francisella tularensis subsp. holarctica LVS
HLA-B*07:02 [4] = experiment: as above; conditions: source organism: Vibrio vulnificus
HLA-B*51:01 = experiment: as above; conditions: source organism: Vibrio vulnificus
HLA-C*12:03 = experiment: as above; conditions: source organism: Vibrio vulnificus YJ016
HLA-C*14:02 = experiment: as above; conditions: source organism: Vibrio vulnificus YJ016
HLA-B*15:01 [5] = experiment: as above; conditions: source organism: Vibrio vulnificus CMCP6
HLA-C*15:02 = experiment: as above; conditions: source organism: Vibrio vulnificus YJ016
HLA-B*45:06 = experiment: IEDB peptide-MHC binding, purified MHC/competitive/fluorescence; filed as Kd, often an IC50 or EC50 that approximates it; ≥ and ≤ were set here for values at or beyond the usual limits of such assays; conditions: source organism: Vibrio vulnificus YJ016
HLA-B*15:42 = experiment: as above; conditions: source organism: Vibrio vulnificus YJ016
HLA-B*83:01 = experiment: as above; conditions: source organism: Vibrio vulnificus YJ016
HLA-C*06:02 = experiment: as above; conditions: source organism: Vibrio vulnificus YJ016
HLA-A*02:03 = experiment: IEDB peptide-MHC binding, purified MHC/direct/fluorescence; filed as Kd, often an IC50 or EC50 that approximates it; ≥ and ≤ were set here for values at or beyond the usual limits of such assays; conditions: source organism: Zaire ebolavirus
HLA-A*02:19 = experiment: as above; conditions: source organism: Zaire ebolavirus
HLA-A*02:12 = experiment: as above; conditions: source organism: Zaire ebolavirus
HLA-A*02:16 = experiment: as above; conditions: source organism: Zaire ebolavirus
HLA-A*24:03 = experiment: as above; conditions: source organism: Zaire ebolavirus
HLA-B*58:01 = experiment: as above; conditions: source organism: Zaire ebolavirus
HLA-A*23:01 = experiment: as above; conditions: source organism: Zaire ebolavirus
HLA-B*39:01 = experiment: IEDB peptide-MHC binding, purified MHC/competitive/fluorescence; filed as Kd, often an IC50 or EC50 that approximates it; ≥ and ≤ were set here for values at or beyond the usual limits of such assays; conditions: source organism: Zaire ebolavirus
HLA-B*27:03 = experiment: as above; conditions: source organism: Zaire ebolavirus
HLA-A*26:01 = experiment: as above; conditions: source organism: Zaire ebolavirus
HLA-A*02:01 [6] = experiment: as above; conditions: source organism: Zaire ebolavirus
HLA-B*46:01 = experiment: as above; conditions: source organism: Zaire ebolavirus
HLA-B*35:01 = experiment: as above; conditions: source organism: Zaire ebolavirus
HLA-B*57:01 = experiment: as above; conditions: source organism: Zaire ebolavirus
HLA-A*69:01 = experiment: as above; conditions: source organism: Zaire ebolavirus
HLA-B*07:02 [7] = experiment: IEDB peptide-MHC binding, purified MHC/competitive/fluorescence; ≥ and ≤ were set here for values at or beyond the usual limits of such assays; conditions: source organism: Zaire ebolavirus
HLA-A*02:01 [8] = experiment: as above; conditions: source organism: Zaire ebolavirus
HLA-A*03:01 = experiment: as above; conditions: source organism: Zaire ebolavirus
HLA-A*24:02 = experiment: as above; conditions: source organism: Zaire ebolavirus
HLA-A*11:01 = experiment: as above; conditions: source organism: Zaire ebolavirus
HLA-B*48:01 = experiment: IEDB peptide-MHC binding, purified MHC/direct/fluorescence; filed as Kd, often an IC50 or EC50 that approximates it; ≥ and ≤ were set here for values at or beyond the usual limits of such assays; conditions: source organism: Burkholderia mallei
[9] = source organism: Sudan ebolavirus
[10] = source organism: Zaire ebolavirus

TSSYYATSY showed a pIC50 (HLA-A*01:01 [1]; [9]) of 5.70 and a pIC50 (HLA-B*15:01 [2]; [9]) of 4.84.

LSDNLSLVY was tested, and the pKd (HLA-A*80:01) was 6.77, the pKd (HLA-C*08:02; source organism: Francisella tularensis subsp. tularensis FSC198) was 6.26 and the pKd (HLA-A*01:01 [3]) was no less than 9.00.

YLRKHIRAL gave a pKd (HLA-B*07:02 [4]) of 8.52, a pKd (HLA-B*51:01) of no more than 4.70 and a pKd (HLA-C*12:03) of 6.71. The pKd (HLA-C*14:02) was 7.00, the pKd (HLA-B*15:01 [5]) was 7.62 and the pKd (HLA-C*15:02) was no more than 4.70. It also gave a pKd (HLA-B*45:06) of no more than 5.30, a pKd (HLA-B*15:42) of no more than 5.30 and a pKd (HLA-B*83:01) of no more than 5.30. It also gave a pKd (HLA-C*06:02) of 6.32.

TVAPPAPVY gave a pKd (HLA-A*02:03) of no more than 4.70, a pKd (HLA-A*02:19) of no more than 4.70 and a pKd (HLA-A*02:12) of no more than 4.70. For the same sequence, the pKd (HLA-A*02:16) was no more than 4.70, the pKd (HLA-A*24:03) was no more than 4.70 and the pKd (HLA-B*58:01) was 5.96. For the same sequence, the pKd (HLA-A*23:01) was no more than 4.70, the pKd (HLA-B*39:01) was no more than 4.70 and the pKd (HLA-B*27:03) was no more than 4.70. For the same sequence, the pKd (HLA-A*26:01) was no more than 4.70, the pKd (HLA-A*02:01 [6]) was no more than 4.70 and the pKd (HLA-B*46:01) was no more than 4.70. For the same sequence, the pKd (HLA-B*35:01) was 9.70, the pKd (HLA-B*57:01) was no more than 4.70 and the pKd (HLA-A*69:01) was no more than 4.70. It also gave a pIC50 (HLA-B*07:02 [7]) of no more than 3.86, a pIC50 (HLA-A*02:01 [8]) of no more than 3.92 and a pIC50 (HLA-A*03:01) of 5.20. The pIC50 (HLA-A*01:01 [1]; [10]) was 4.74, the pIC50 (HLA-B*15:01 [2]; [10]) was 5.09 and the pIC50 (HLA-A*24:02) was 5.29. For the same sequence, the pIC50 (HLA-A*11:01) was 6.56.

For FQPQSGNAM, the pKd (HLA-C*08:02; source organism: Burkholderia mallei NCTC 10229) was 6.24 and the pKd (HLA-B*48:01) was 5.60.
